Data set [1] in a line: flow cytometry, mean YFP fluorescence, stable HepG2. As to conditions: glycan lost. A general note: In flow cytometry, cells or beads pass a laser one at a time.
Data set [2] can be described thus: confocal imaging, transiently transfected HepG2. As to conditions: glycan lost; control: untreated.
Data set [3] can be described thus: confocal imaging, apical targeting, polarized MDCK cells. Conditions: glycan lost; control: wild-type hSVCT1-YFP.
The nature of data set [4]: confocal imaging, cell surface targeting, stable HepG2. As to conditions: glycan lost; control: wild-type hSVCT1-YFP.
Data set [5] in a line: [14C]-ascorbic acid uptake, stable HepG2 cells. Conditions: glycan lost; control: wild-type hSVCT1-YFP.

For the substance hSVCT2: N188Q, the expression_or_secretion result in data set [1] (control: wild-type hSVCT2-YFP) is listed as “decreases”.

For hSVCT2: tunicamycin, the localisation_or_trafficking result in data set [2] was “no change”. Besides, in data set [1] (control: untreated), the expression_or_secretion result was “decreases”.

For the substance hSVCT1: tunicamycin, the localisation_or_trafficking result in data set [2] is “decreases”. Besides, the expression_or_secretion result in data set [1] (control: untreated) is listed as “decreases”.

As to hSVCT2: N188/N196Q, the expression_or_secretion result in data set [1] (control: wild-type hSVCT2-YFP) is on record as “decreases”.

Regarding hSVCT2: N196Q, the expression_or_secretion result in data set [1] (control: wild-type hSVCT2-YFP) is given as “decreases”.

With hSVCT1: N138/N144Q, in data set [1] (control: wild-type hSVCT1-YFP), the expression_or_secretion entry is on record as “decreases”.

Turning to hSVCT1: N138Q, in data set [1] (control: wild-type hSVCT1-YFP), the expression_or_secretion result is reported as “decreases”. Besides, the localisation_or_trafficking result in data set [3] and in data set [4] was “decreases” each time.

Take hSVCT1: N144Q: the “other: transport activity” value in data set [5] is recorded as “decreases”. Also, the expression_or_secretion result in data set [1] (control: wild-type hSVCT1-YFP) is “no change”. The localisation_or_trafficking result in data set [3] and in data set [4] was “no change” in each case.

For the substance hSVCT1: N138Q/N144Q, the localisation_or_trafficking entry in data set [3] is “decreases”.

The values above are taken from article PMC2528843.
